In patent publication US20140050743A1, “BINDING PROTEINS TO INHIBITORS OF COAGULATION FACTORS” (BAYER INTELLECTUAL PROPERTY GMBH, priority 2011, published 2014) one finds ELISA data, which are given here for 13 molecules.

B1: M14-G07-15: antibody, Vh SEQ ID NO: 155, Vl SEQ ID NO: 156 (antibody, listed as Homo Sapiens, V domains shown)
VH: EVQLLESGGGLVQPGGSLRLSCAASGFTFSSYAMSWVRQAPGKGLEWVGGISGSGGSTYYADSVKGRFTISRDNSKNTLYLQMNSLRAEDTAVYYCARQGRTSFYLDVWGQGTLVTVSS
VL: QSVLTQPPSASGTPGQRVTISCSGSSSNIGSYYVYWYQQLPGTAPKLLIYDNNQRPSGVPDRFSGSKSGTSASLAISGLRSEDEADYYCVAWDDSWSGHWVFGGGTKLTVL
B2: M14-G07-19: antibody, Vh SEQ ID NO: 163, Vl SEQ ID NO: 164 (antibody, listed as Homo Sapiens, V domains shown)
VH: EVQLLESGGGLVQPGGSLRLSCAASGFTFSSYAMSWVRQAPGKGLEWVSGISGSGGSTYYADSVKGRFTISRDNSKNTLYLQMNSLRAEDTAVYYCARQGRTSFYLDVWGQGTLVTVSS
VL: QSVLTQPPSASGTPGQRVTISCSGSSRNIGSFYVYWYQQLPGTAPKLLIYDNRQRPSGVPDRFSGSKSGTSASLAISGLRSEDEADYYCVAWDDSLSGHWVFGGGTKLTVL
B3: M14-G07-27: antibody, Vh SEQ ID NO: 179, Vl SEQ ID NO: 180 (antibody, listed as Homo Sapiens, V domains shown)
VH: EVQLLESGGGLVQPGGSLRLSCAASGFTFSSYAMSWVRQAPGKGLEWVGGISGSGGSTYYADSVKGRFTISRDNSKNTLYLQMNSLRAEDTAVYYCARQGRTSFYLDVWGQGTLVTVSS
VL: QSVLTQPPSASGTPGQRVTISCSGSSSNIGAYYVYWYQQLPGTAPKLLIYDNNQRPSGVPDRFSGSKSGTSASLAISGLRSEDEADYYCVAWDDSYSGHWVFGGGTKLTVL
B4: M14-G07-22: antibody, Vh SEQ ID NO: 169, Vl SEQ ID NO: 170 (antibody, listed as Homo Sapiens, V domains shown)
VH: EVQLLESGGGLVQPGGSLRLSCAASGFTFSSYAMSWVRQAPGKGLEWVGGISGSGGSTYYADSVKGRFTISRDNSKNTLYLQMNSLRAEDTAVYYCARQGRTSFYLDVWGQGTLVTVSS
VL: QSVLTQPPSASGTPGQRVTISCSGSSSNIGAYYVYWYQQLPGTAPKLLIYDNNQRPSGVPDRFSGSKSGTSASLAISGLRSEDEADYYCVAWDDSWSGTWVFGGGTKLTVL
B5: M14-G07-26: antibody, Vh SEQ ID NO: 177, Vl SEQ ID NO: 178 (antibody, listed as Homo Sapiens, V domains shown)
VH: EVQLLESGGGLVQPGGSLRLSCAASGFTFSSYAMSWVRQAPGKGLEWVGGISGSGGSTYYADSVKGRFTISRDNSKNTLYLQMNSLRAEDTAVYYCARQGKTSFYLDVWGQGTLVTVSS
VL: QSVLTQPPSASGTPGQRVTISCSGSSSNIGSFYVYWYQQLPGTAPKLLIYDNNQRPSGVPDRFSGSKSGTSASLAISGLRSEDEADYYCVAWDDSYSGTWVFGGGTKLTVL
B6: M14-G07-25: antibody, Vh SEQ ID NO: 175, Vl SEQ ID NO: 176 (antibody, listed as Homo Sapiens, V domains shown)
VH: EVQLLESGGGLVQPGGSLRLSCAASGFRFSSYAMSWVRQAPGKGLEWVGGISGSGGSTYYADSVKGRFTISRDNSKNTLYLQMNSLRAEDTAVYYCARQGRTSFYLDVWGQGTLVTVSS
VL: QSVLTQPPSASGTPGQRVTISCSGSSSNIGAYYVYWYQQLPGTAPKLLIYDNNQRPSGVPDRFSGSKSGTSASLAISGLRSEDEADYYCVAWDDSYSGTWVFGGGTKLTVL
B7: M14-G07-20: antibody, Vh SEQ ID NO: 165, Vl SEQ ID NO: 166 (antibody, listed as Homo Sapiens, V domains shown)
VH: EVQLLESGGGLVQPGGSLRLSCAASGFRFSSYAMSWVRQAPGKGLEWVGGISGSGGSTYYADSVKGRFTISRDNSKNTLYLQMNSLRAEDTAVYYCARQGRTSFYLDVWGQGTLVTVSS
VL: QSVLTQPPSASGTPGQRVTISCSGSSSNIGAYYVYWYQQLPGTAPKLLIYDNNQRPSGVPDRFSGSKSGTSASLAISGLRSEDEADYYCVAWDDSLSGTWVFGGGTKLTVL
B8: M14-G07-21: antibody, Vh SEQ ID NO: 167, Vl SEQ ID NO: 168 (antibody, listed as Homo Sapiens, V domains shown)
VH: EVQLLESGGGLVQPGGSLRLSCAASGFRFSSYAMSWVRQAPGKGLEWVGGISGSGGSTYYADSVKGRFTISRDNSKNTLYLQMNSLRAEDTAVYYCARQGETSFYLDVWGQGTLVTVSS
VL: QSVLTQPPSASGTPGQRVTISCSGSSSNIGSYYVYWYHQLPGTAPKLLIYDNNQRPSGVPDRFSGSKSGTSASLAISGLRSEDEADYYCVAWDDSWSGTWVFGGGTKLTVL
B9: M14-G07-24: antibody, Vh SEQ ID NO: 173, Vl SEQ ID NO: 174 (antibody, listed as Homo Sapiens, V domains shown)
VH: EVQLLESGGGLVQPGGSLRLSCAASGFTFSSYAMSWVRQAPGKGLEWVSGISGSGGSTYYADSVKGRFTISRDNSKNTLYLQMNSLRAEDTAVYYCARQGRTSFYLDVWGQGTLVTVSS
VL: QSVLTQPPSASGTPGQRVTISCSGSSRNIGSYYVYWYQQLPGTAPKLLIYDNNQRPSGVPDRFSGSKSGTSASLAISGLRSEDEADYYCVAWDDSLSGTWVFGGGTKLTVL
B10: M14-G07-18: antibody, Vh SEQ ID NO: 161, Vl SEQ ID NO: 162 (antibody, listed as Homo Sapiens, V domains shown)
VH: EVQLLESGGGLVQPGGSLRLSCAASGFRFSSYAMSWVRQAPGKGLEWVGGISGSGGSTYYADSVKGRFTISRDNSKNTLYLQMNSLRAEDTAVYYCARQGRTSFYLDVWGQGTLVTVSS
VL: QSVLTQPPSASGTPGQRVTISCSGSSRNIGSYYVYWYQQLPGTAPKLLIYDNNQRPSGVPDRFSGSKSGTSASLAISGLRSEDEADYYCVAWDDSWSGTWVFGGGTKLTVL
B11: M14-G07-23: antibody, Vh SEQ ID NO: 171, Vl SEQ ID NO: 172 (antibody, listed as Homo Sapiens, V domains shown)
VH: EVQLLESGGGLVQPGGSLRLSCAASGFRFSSYAMSWVRQAPGKGLEWVGGISGSGGSTYYADSVKGRFTISRDNSKNTLYLQMNSLRAEDTAVYYCARQGRTSFYLDVWGQGTLVTVSS
VL: QSVLTQPPSASGTPGQRVTISCSGSSRNIGAFYVYWYQQLPGTAPKLLIYDNNQRPSGVPDRFSGSKSGTSASLAISGLRSEDEADYYCVAWDDSLSGTWVFGGGTKLTVL
B12: M14-G07-16: antibody, Vh SEQ ID NO: 157, Vl SEQ ID NO: 158 (antibody, listed as Homo Sapiens, V domains shown)
VH: EVQLLESGGGLVQPGGSLRLSCAASGFRFSSYAMSWVRQAPGKGLEWVGGISGSGGSTYYADSVKGRFTISRDNSKNTLYLQMNSLRAEDTAVYYCARQGRTSFYLDVWGQGTLVTVSS
VL: QSVLTQPPSASGTPGQRVTISCSGSSRNIGSFYVYWYQQLPGTAPKLLIYDNRQRPSGVPDRFSGSKSGTSASLAISGLRSEDEADYYCVAWDDSYSGTWVFGGGTKLTVL
B13: M14-G07-17: antibody, Vh SEQ ID NO: 159, Vl SEQ ID NO: 160 (antibody, listed as Homo Sapiens, V domains shown)
VH: EVQLLESGGGLVQPGGSLRLSCAASGFTFSSYAMSWVRQAPGKGLEWVGGISGSGGSTYYADSVKGRFTISRDNSKNTLYLQMNSLRAEDTAVYYCARQGRTSFYLDVWGQGTLVTVSS
VL: QSVLTQPPSASGTPGQRVTISCSGSSRNIGAFYVYWYQQLPGTAPKLLIYDNRQRPSGVPDRFSGSKSGTSASLAISGLRSEDEADYYCVAWDDSWSGTWVFGGGTKLTVL

The experiment is described as follows: ELISA-based activity assay of antibody variants without a competition step. More on the design: key: +++: Variants with an average ratio above reference plus 2×SD; +/−: variants with a ratio below reference minus 2×SD; ++: All variants with a performance in between both thresholds; −: Variants with a ratio below 0.5. Conditions: Table 10, multiple substitutions within M14-G07, variant to reference ratio (reference 2-fold improved over wt). Format: binding. On the procedure:
To determine the activity of the mutated antibody variants on compound from Example 1K an equilibrium or dissociation limited ELISA assay format was used. Briefly, MTP plates (Nunc Maxisorp black, 460518) were coated with 4 μg/ml streptavidin (Calbiochem, 189730) diluted in coating buffer (Candor Bioscience GmbH, 121500) and incubated over night at 4° C. After washing with PBST, plates were blocked with 100% Smart Block (Candor Bioscience GmbH, 113500) in PBST for 1 h at room temperature and the washing step was repeated. Plates were incubated with compound from Example 1K at varying concentrations (0.3-200 nM) for 1 h at 37° C., washed with PBST and antibody fragments were immobilized by adding 25 μl of the crude bacterial cultures for 1 h at room temperature. After washing with PBST a competition step or the immediate detection was performed. […] For the detection of the residually bound Fabs a HRP-coupled anti-lambda antibody (Sigma, A5175) diluted in 10% Smart Block in PBST was added for 1 h at room temperature. After washing 10 μM Amplex Red (Invitrogen, A12222) were added and incubated for 10 to 30 min at room temperature followed by measurement of the fluorescence signal.
Provided in Table 9 are several examples of single and/or double amino acid substitutions introduced into the heavy and/or the light chain of M14-G07 (wt). Performance of the variants was analyzed in quadruples in the ELISA without a competition step and the FXa deinhibition assay (FXa DIA). In the ELISA, averages were calculated and normalized to the respective average expression level. Overall performance of variants was evaluated by comparing the variant to wt ratio from 2-3 independent experiments. Variants with an average ratio above wt plus 2×SD (standard deviation of the ratio) were considered as improved and are marked with “++”, whereas variants with a ratio below wt minus 2×SD were considered as reduced in their binding affinity and are marked with “−”. All variants with a performance in between both thresholds are marked with “+/−”. Variants with average fluorescence counts below the negative control (non-expressing cells) plus 3×SD were considered as non-binding and marked with “−−” with none of the variants fulfilling this criteria. In the FXa deinhibition assay averages were calculated and overall performance of variants was evaluated by comparing the variant to wt ratio from 2-3 independent experiments. Variants with an average ratio above wt plus 2×SD were considered as improved and are marked with “++”, whereas variants with a ratio below wt minus 2×SD were considered as either reduced in their binding affinity or non-binding and are marked with “−−”. All variants with a performance in between both thresholds are marked with “+/−”. Variants not analyzed are marked with “nd” (not determined). CDRs were defined according to Kabat.
Provided in Table 10 are examples of combined amino acid substitutions within M14-G07 antibodies. While not every combination is provided in Table 10, it is contemplated that the anti-rivaroxaban antibody may comprise any combination of modifications provided. Variant performance was analyzed in quadruples in the ELISA without a competition step. Averages were calculated, average background signals determined on a streptavidin coated plate without compound from Example 1K were subtracted if the compound from Example 1K concentration used for coating was below 10 nM and signals were normalized to the respective average expression level. Overall performance of variants was evaluated by comparing the variant to reference ratio from 2-3 independent experiments using a 2-fold improved reference variant as compared to wt. Variants with an average ratio above reference plus 2×SD are marked with “+++”, whereas variants with a ratio below reference minus 2×SD are marked with “+/−”. All variants with a performance in between both thresholds are marked with “++”. […]
B1: the ELISA result is “+++”. The entry for B2 is “+++”; for B3 it is “+++”. In the case of B4 it was “+++”; in that of B5, “+++”; in that of B6, “+++”.

For B7, the ELISA result is “+++”.

For B8, the ELISA result is recorded as “+++”. For B9, the ELISA entry is given as “+++”. Regarding B10, the ELISA entry was “+++”. Turning to B11, the ELISA entry was “+++”. For the molecule B12, the ELISA entry was “+++”. For the molecule B13, the ELISA entry was “+++”.
